The labels stand for the following.
B2: gamma-hemolysin component HlgB (F component leukotoxin) of Staphylococcus aureus (natural protein)
chain: NAEGKITPVSVKKVDDKVTLYKTTATADSDKFKISQILTFNFIKDKSYDKDTLVLKATGNINSGFVKPNPNDYDFSKLYWGAKYNVSISSQSNDSVNVVDYAPKNQNEEFQVQNTLGYTFGGDISISNGLSGGLNGNTAFSETINYKQESYRTTLSRNTNYKNVGWGVEAHKIMNNGWGPYGRDSFHPTYGNELFLAGRQSSAYAGQNFIAQHQMPLLSRSNFNPEFLSVLSHRQDGAKKSKITVTYQREMDLYQIRWNGFYWAGANYKNFKTRTFKSTYEIDWENHKVKLLDTKETENNK

The target of data set [1] is SNAP-tag-fused ACKR1 receptor (human) (UniProt Q16570). In words: FRET or BRET.
Data set [2] concerns the molecule itself. In words: native MS.
For data set [3], the target named is T1, N16,27,33Q-ACKR1 mutant (non-glycosylated) (human, UniProt Q16570 1-336, N^16,27,33Q | N^16,27,33Q | N^16,27,33Q).
T1 sequence: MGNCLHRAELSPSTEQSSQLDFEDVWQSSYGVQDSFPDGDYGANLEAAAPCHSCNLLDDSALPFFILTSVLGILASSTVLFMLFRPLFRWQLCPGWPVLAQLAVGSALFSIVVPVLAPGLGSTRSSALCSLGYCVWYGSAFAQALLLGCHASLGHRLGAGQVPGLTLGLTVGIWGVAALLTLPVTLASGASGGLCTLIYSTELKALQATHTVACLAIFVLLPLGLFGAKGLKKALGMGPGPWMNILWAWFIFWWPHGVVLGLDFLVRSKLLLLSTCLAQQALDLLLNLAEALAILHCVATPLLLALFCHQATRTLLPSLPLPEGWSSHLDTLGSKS
In words: HDX-MS.

The target of data set [4] is T2, gamma-hemolysin component HlgA (S component leukotoxin) of Staphylococcus aureus (Staphylococcus aureus), P0A074.
T2 chain: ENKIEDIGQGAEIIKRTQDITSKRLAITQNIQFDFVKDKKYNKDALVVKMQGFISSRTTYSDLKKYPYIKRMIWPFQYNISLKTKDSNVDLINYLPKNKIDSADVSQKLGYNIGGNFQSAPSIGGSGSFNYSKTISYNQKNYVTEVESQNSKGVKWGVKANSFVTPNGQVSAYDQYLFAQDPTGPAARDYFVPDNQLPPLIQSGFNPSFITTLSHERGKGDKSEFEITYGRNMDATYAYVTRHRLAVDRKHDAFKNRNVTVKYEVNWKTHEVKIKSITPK
Kind of data set: native MS. The following applies: remark: other sources report otherwise.

Data set [5] concerns the target B2. Kind of data set: native MS.
Data set [6] addresses T3, ACKR1 treated with PNGase F (deglycosylated ACKR1) (human, UniProt Q16570 1-336, N-glycans removed by PNGase F).
T3 sequence: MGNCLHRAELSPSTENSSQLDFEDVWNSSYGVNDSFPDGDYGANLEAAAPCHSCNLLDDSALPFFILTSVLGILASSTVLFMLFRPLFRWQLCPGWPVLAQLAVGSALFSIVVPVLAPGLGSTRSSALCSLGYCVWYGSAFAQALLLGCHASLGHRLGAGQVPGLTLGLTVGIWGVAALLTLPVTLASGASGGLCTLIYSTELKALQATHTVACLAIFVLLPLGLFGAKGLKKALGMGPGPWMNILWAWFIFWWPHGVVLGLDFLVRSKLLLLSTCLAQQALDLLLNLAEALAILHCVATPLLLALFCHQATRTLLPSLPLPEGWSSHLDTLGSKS
In words: native MS.

Usually IC50 stands for the concentration needed to halve the response being measured. Higher therefore signals weaker potency. Consider “HlgAB, equimolar mixture of HlgA and HlgB (from UniProt P0A074;P0A077) (complex)”, for which the IC50 in data set [1] stood at 6.2 nM.

B1: atypical chemokine receptor 1 (ACKR1), purified, glycosylated wild type (receptor)
chain: MGNCLHRAELSPSTENSSQLDFEDVWNSSYGVNDSFPDGDYGANLEAAAPCHSCNLLDDSALPFFILTSVLGILASSTVLFMLFRPLFRWQLCPGWPVLAQLAVGSALFSIVVPVLAPGLGSTRSSALCSLGYCVWYGSAFAQALLLGCHASLGHRLGAGQVPGLTLGLTVGIWGVAALLTLPVTLASGASGGLCTLIYSTELKALQATHTVACLAIFVLLPLGLFGAKGLKKALGMGPGPWMNILWAWFIFWWPHGVVLGLDFLVRSKLLLLSTCLAQQALDLLLNLAEALAILHCVATPLLLALFCHQATRTLLPSLPLPEGWSSHLDTLGSKS
modifications: N-glycosylated at N16, N27 and N33
One may read the stoichiometry N as a count of units in the complex or per binding partner. As for B1, the “stoichiometry N” value in data set [2] came out at 2.

B2: in data set [3], the binding result is “binds”. Moreover, in data set [2], the “fold dimer-to-monomer ratio against HlgA” value was 2 fold and the “stoichiometry N” value turned out to be 2.

B3: gamma-hemolysin component HlgA (S component leukotoxin) of Staphylococcus aureus (natural protein)
chain: ENKIEDIGQGAEIIKRTQDITSKRLAITQNIQFDFVKDKKYNKDALVVKMQGFISSRTTYSDLKKYPYIKRMIWPFQYNISLKTKDSNVDLINYLPKNKIDSADVSQKLGYNIGGNFQSAPSIGGSGSFNYSKTISYNQKNYVTEVESQNSKGVKWGVKANSFVTPNGQVSAYDQYLFAQDPTGPAARDYFVPDNQLPPLIQSGFNPSFITTLSHERGKGDKSEFEITYGRNMDATYAYVTRHRLAVDRKHDAFKNRNVTVKYEVNWKTHEVKIKSITPK
As to B3, the binding result in data set [3] and in data set [5] was “binds” each time. Further, the relative quantification in the equimolar mixture (HlgA monomer 100%) in data set [4] was 1.5%. Besides, the stoichiometry N in data set [4] amounted to 2; in data set [6] it was 1.

Values taken from article doi:10.1101/2021.02.08.430206 (bioRxiv, 2021).
